The source of these data is patent publication US20180177763A1, “SMALL MOLECULES THAT MIMIC OR ANTAGONIZE ACTIONS OF GRANULOCYTE COLONY-STIMULATING-FACTOR (G-CSF)” (published 2018).

Assay [1] has as its target T1, Granulocyte-colony stimulating factor receptor (G-CSF-R) (human).
T1 chain: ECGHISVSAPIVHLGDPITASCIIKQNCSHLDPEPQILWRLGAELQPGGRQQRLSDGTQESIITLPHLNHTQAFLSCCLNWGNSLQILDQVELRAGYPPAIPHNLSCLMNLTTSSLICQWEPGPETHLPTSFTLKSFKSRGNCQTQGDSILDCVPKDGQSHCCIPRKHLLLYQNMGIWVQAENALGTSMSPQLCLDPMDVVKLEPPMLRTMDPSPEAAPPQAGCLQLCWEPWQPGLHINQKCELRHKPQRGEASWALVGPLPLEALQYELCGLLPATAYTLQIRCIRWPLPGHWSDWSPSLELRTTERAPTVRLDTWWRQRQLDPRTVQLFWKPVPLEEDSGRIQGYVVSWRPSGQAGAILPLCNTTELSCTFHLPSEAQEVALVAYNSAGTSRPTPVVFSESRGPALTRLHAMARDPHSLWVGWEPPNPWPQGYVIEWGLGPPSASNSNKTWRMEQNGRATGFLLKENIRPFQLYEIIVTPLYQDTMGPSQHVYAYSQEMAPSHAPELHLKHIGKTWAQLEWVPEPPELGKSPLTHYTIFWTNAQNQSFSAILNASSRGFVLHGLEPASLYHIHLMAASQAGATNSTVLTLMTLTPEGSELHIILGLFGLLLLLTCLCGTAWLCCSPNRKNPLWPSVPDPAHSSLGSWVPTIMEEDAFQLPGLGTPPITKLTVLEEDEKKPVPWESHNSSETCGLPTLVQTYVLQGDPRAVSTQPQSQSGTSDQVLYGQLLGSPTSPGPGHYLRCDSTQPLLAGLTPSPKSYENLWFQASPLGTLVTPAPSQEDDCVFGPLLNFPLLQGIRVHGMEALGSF
As to the kind of experiment: saturation binding of radioligand to SH-SY5Y neuronal cells, nonlinear regression. The method, then:
(§1) Binding of [¹²⁵I]-G-CSF was measured using previously described method (Kondo, S., et al. Eur. J. Haematol. 1991, 46, 223-30) with some modifications (Pennington, A., et al. Alzheimer's Disease and Parkinsonism 2013, 3, 121). [¹²⁵I]-G-CSF (specific activity 46.55 TBq/mmol) was purchased from Perkin Elmer (Waltham, Mass.). Cells were incubated in 180 μL of binding medium containing 0.2% BSA, 5 mM MgSO₄, and 50 mM Hepes, pH 7.2 at a concentration of 1.5×10⁷ cells/mL and the appropriate concentration of [¹²⁵I]-G-CSF. Incubations were carried out at room temperature with periodic shaking to ensure continuous mixing of cells and radioactive ligand. […] Nonspecific binding of [¹²⁵I]-G-CSF was measured by incubations in the presence of a 100-fold molar excess of unlabeled G-CSF. […] Bound and free ligand activities were counted after cutting tubes in two pieces and placing the tips and tops, respectively into separate scintillation vials. […] The specific binding was determined from the amount of bound [¹²⁵I]-G-CSF blocked by competition with excess unlabeled G-CSF. The parameters of saturation binding experiments including dissociation constant (Kd), maximum binding capacity (Bmax) and binding cooperativity (h) were calculated with GraphPad Prism 5 software (La Jolla, Calif.) by using nonlinear regression analysis. […]

Assay [2] deals with T1, Granulocyte-colony stimulating factor …. Nature of the assay: saturation binding of radioligand to SH-SY5Y neuronal cells (value in the text differs from Table 2). The method, then: as §1
Assay [3] has the same target. As to the kind of experiment: saturation binding of radioligand to THP-1 monocytic cells (value in the text differs from Table 2). How it is done: as §1
Assay [4] shares this target. Nature of the assay: saturation binding of radioligand to THP-1 monocytic cells, nonlinear regression. The method, then:
as §1

B1: [125I]-G-CSF (ligand)
chain: TPLGPASSLPQSFLLKCLEQVRKIQGDGAALQEKLVSECATYKLCHPEELVLLGHSLGIPWAPLSSCPSQALQLAGCLSQLHSGLFLYQGLLQALEGISPELGPTLDTLQLDVADFATTIWQQMEELGMAPALQPTQGAMPAFASAFQRRAGGVLVASHLQSFLEVSYRVLRHLAQP
modifications: 125I radiolabel (specific activity 46.55 TBq/mmol); labelled residue not stated
Consider B1, for which the Kd in assay [1] was determined as 0.608 nM; in assay [2], 0.607 nM; in assay [3] it was 0.0575 nM; in assay [4] it was 0.0538 nM.
